Patent publication US20240117018A1

Key:
Test in all cases: cell-based or functional assay
[1] = target: HIV-1 Env of pseudovirus CAP45.2.00.G3 (HIV-1)
[2] = target: HIV-1 Env of pseudovirus 6244_13_B5_4576 (HIV-1)
[3] = target: HIV-1 Env of pseudovirus CNE21 (HIV-1)
[4] = target: HIV-1 Env of pseudovirus SC05_8C11_2344 (HIV-1)
[5] = target: HIV-1 Env of pseudovirus MS208.A1 (HIV-1)
[6] = target: HIV-1 Env of pseudovirus Q842.d12 (HIV-1)
[7] = target: HIV-1 Env of pseudovirus PVO.4 (HIV-1)
[8] = target: HIV-1 Env of pseudovirus 1054_07_TC4_1499 (HIV-1)
[9] = target: HIV-1 Env of pseudovirus Du422.1 (HIV-1)
[10] = target: HIV-1 Env of pseudovirus ZM197M.PB7 (HIV-1)
[11] = target: HIV-1 Env of pseudovirus BF1266.431a (HIV-1)
[12] = target: HIV-1 Env of pseudovirus 3365.v2.c2 (HIV-1)
[13] = target: HIV-1 Env of pseudovirus Ce703010054_2A2 (HIV-1)
[14] = target: HIV-1 Env of pseudovirus ZM109F.PB4 (HIV-1)
[15] = target: HIV-1 Env of pseudovirus 246F C1G (HIV-1)
[16] = target: HIV-1 Env of pseudovirus Ce1086_B2 (HIV-1)
[17] = target: HIV-1 Env of pseudovirus Ce0393_C3 (HIV-1)
[18] = target: HIV-1 Env of pseudovirus 263-8 (HIV-1)
[19] = target: HIV-1 Env of pseudovirus QH0692.42 (HIV-1)
[20] = target: HIV-1 Env of pseudovirus Ce1172_H1 (HIV-1)
[21] = target: HIV-1 Env of pseudovirus CAP210.2.00.E8 (HIV-1)
[22] = target: HIV-1 Env of pseudovirus THRO4156.18 (HIV-1)
[23] = target: HIV-1 Env of pseudovirus Ce704809221_1B3 (HIV-1)
[24] = target: HIV-1 Env of pseudovirus CNE19 (HIV-1)
[25] = target: HIV-1 Env of pseudovirus CNE58 (HIV-1)
[26] = target: HIV-1 Env of pseudovirus Ce1176_A3 (HIV-1)
[27] = target: HIV-1 Env of pseudovirus CNE52 (HIV-1)
[28] = target: HIV-1 Env of pseudovirus CAAN5342.A2 (HIV-1)
[29] = target: HIV-1 Env of pseudovirus X1254_c3 (HIV-1)
[30] = target: HIV-1 Env of pseudovirus C2101.c01 (HIV-1)
[31] = target: HIV-1 Env of pseudovirus R3265.c06 (HIV-1)
[32] = target: HIV-1 Env of pseudovirus P0402_c2_11 (HIV-1)
[33] = target: HIV-1 Env of pseudovirus X2088_c9 (HIV-1)
[34] = target: HIV-1 Env of pseudovirus 0815.v3.c3 (HIV-1)
[35] = target: HIV-1 Env of pseudovirus T278-50 (HIV-1)
[36] = target: HIV-1 Env of pseudovirus BJOX010000.06.2 (HIV-1)
[37] = target: HIV-1 Env of pseudovirus A07412M1.vrc12 (HIV-1)

Substance: NIH 45-46 (antibody)
- IC50 [1]: > 50 µg/mL
- IC80 [1]: > 50 µg/mL
- IC50 [2]: 0.07 µg/mL
- IC80 [2]: 0.26 µg/mL
- IC50 [3]: 7.53 µg/mL
- IC80 [3]: > 50 µg/mL
- IC50 [4]: 0.14 µg/mL
- IC80 [4]: 0.38 µg/mL
- IC50 [5]: 0.09 µg/mL
- IC80 [5]: 0.6 µg/mL
- IC50 [6]: 0.03 µg/mL
- IC80 [6]: 0.03 µg/mL
- IC50 [7]: 0.17 µg/mL
- IC80 [7]: 0.47 µg/mL
- IC50 [8]: 0.07 µg/mL
- IC80 [8]: 0.61 µg/mL
- IC50 [9]: > 50 µg/mL
- IC80 [9]: > 50 µg/mL
- IC50 [10]: 0.14 µg/mL
- IC80 [10]: 0.64 µg/mL
- IC50 [11]: 0.01 µg/mL
- IC80 [11]: 0.03 µg/mL
- IC50 [12]: 0.11 µg/mL
- IC80 [12]: 0.11 µg/mL
- IC50 [13]: 0.22 µg/mL
- IC80 [13]: 0.97 µg/mL
- IC50 [14]: 0.22 µg/mL
- IC80 [14]: 0.22 µg/mL
- IC50 [15]: > 50 µg/mL
- IC80 [15]: > 50 µg/mL
- IC50 [16]: 0.04 µg/mL
- IC80 [16]: 0.28 µg/mL
- IC50 [17]: 0.32 µg/mL
- IC80 [17]: 1.07 µg/mL
- IC50 [18]: 0.05 µg/mL
- IC80 [18]: 0.1 µg/mL
- IC50 [19]: 0.55 µg/mL
- IC80 [19]: 1.56 µg/mL
- IC50 [20]: > 50 µg/mL
- IC80 [20]: > 50 µg/mL
- IC50 [21]: > 50 µg/mL
- IC80 [21]: > 50 µg/mL
- IC50 [22]: 1.59 µg/mL
- IC80 [22]: 6.02 µg/mL
- IC50 [23]: 0.15 µg/mL
- IC80 [23]: 0.88 µg/mL
- IC50 [24]: 0.07 µg/mL
- IC80 [24]: 0.37 µg/mL
- IC50 [25]: 0.25 µg/mL
- IC80 [25]: 1.49 µg/mL
- IC50 [26]: 1.29 µg/mL
- IC80 [26]: 5.55 µg/mL
- IC50 [27]: 0.03 µg/mL
- IC80 [27]: 0.12 µg/mL
- IC50 [28]: 0.11 µg/mL
- IC80 [28]: 0.33 µg/mL

Substance: PGDM1400 (antibody)
- neutralization IC50 [1]: < 1 ng/mL
- neutralization IC80 [1]: 2 ng/mL
- neutralization IC50 [2]: > 50 µg/mL
- neutralization IC80 [2]: > 50 µg/mL
- IC50 (Titer in TZM.bl cells) [29]: > 50 µg/mL
- IC80 (Titer in TZM.bl cells) [29]: > 50 µg/mL
- IC50 (Titer in TZM.bl cells) [30]: 6 ng/mL
- IC80 (Titer in TZM.bl cells) [30]: 0.021 µg/mL
- neutralization IC50 [3]: < 1 ng/mL
- neutralization IC80 [3]: 2 ng/mL
- neutralization IC50 [4]: 1.26 µg/mL
- neutralization IC80 [4]: 3.59 µg/mL
- neutralization IC50 [5]: < 1 ng/mL
- neutralization IC80 [5]: 0.139 µg/mL
- neutralization IC50 [6]: < 1 ng/mL
- neutralization IC80 [6]: 2 ng/mL
- IC50 (Titer in TZM.bl cells) [31]: 0.013 µg/mL
- IC80 (Titer in TZM.bl cells) [31]: 0.041 µg/mL
- neutralization IC50 [7]: 0.484 µg/mL
- neutralization IC80 [7]: 6.49 µg/mL
- IC50 (Titer in TZM.bl cells) [32]: 0.01 µg/mL
- IC80 (Titer in TZM.bl cells) [32]: 0.033 µg/mL
- neutralization IC50 [8]: > 50 µg/mL
- neutralization IC80 [8]: > 50 µg/mL
- neutralization IC50 [9]: 0.694 µg/mL
- neutralization IC80 [9]: > 50 µg/mL
- IC50 (Titer in TZM.bl cells) [33]: > 50 µg/mL
- IC80 (Titer in TZM.bl cells) [33]: > 50 µg/mL
- neutralization IC50 [10]: 0.063 µg/mL
- neutralization IC80 [10]: 0.285 µg/mL
- IC50 (Titer in TZM.bl cells) [34]: > 50 µg/mL
- IC80 (Titer in TZM.bl cells) [34]: > 50 µg/mL
- neutralization IC50 [11]: 3 ng/mL
- neutralization IC80 [11]: 0.011 µg/mL
- neutralization IC50 [13]: 0.015 µg/mL
- neutralization IC80 [13]: 0.26 µg/mL
- neutralization IC50 [14]: 0.057 µg/mL
- neutralization IC80 [14]: 0.382 µg/mL
- neutralization IC50 [15]: > 50 µg/mL
- neutralization IC80 [15]: > 50 µg/mL
- neutralization IC50 [16]: > 50 µg/mL
- neutralization IC80 [16]: > 50 µg/mL
- IC50 (Titer in TZM.bl cells) [35]: 0.574 µg/mL
- IC80 (Titer in TZM.bl cells) [35]: 4.94 µg/mL
- neutralization IC50 [17]: 0.015 µg/mL
- neutralization IC80 [17]: 0.044 µg/mL
- neutralization IC50 [18]: 0.02 µg/mL
- neutralization IC80 [18]: 0.103 µg/mL
- neutralization IC50 [19]: > 50 µg/mL
- neutralization IC80 [19]: > 50 µg/mL
- neutralization IC50 [20]: 0.021 µg/mL
- neutralization IC80 [20]: 0.06 µg/mL
- neutralization IC50 [21]: 0.034 µg/mL
- neutralization IC80 [21]: 0.514 µg/mL
- IC50 (Titer in TZM.bl cells) [36]: 0.605 µg/mL
- IC80 (Titer in TZM.bl cells) [36]: 5.87 µg/mL
- neutralization IC50 [22]: 0.072 µg/mL
- neutralization IC80 [22]: 0.348 µg/mL
- neutralization IC50 [23]: 0.28 µg/mL
- neutralization IC80 [23]: 1.1 µg/mL
- neutralization IC50 [24]: 1 ng/mL
- neutralization IC80 [24]: 7 ng/mL
- neutralization IC50 [25]: 4 ng/mL
- neutralization IC80 [25]: 0.014 µg/mL
- neutralization IC50 [26]: 0.587 µg/mL
- neutralization IC80 [26]: 11.6 µg/mL
- neutralization IC50 [27]: 1.15 µg/mL
- neutralization IC80 [27]: 9.97 µg/mL
- neutralization IC50 [28]: > 50 µg/mL
- neutralization IC80 [28]: > 50 µg/mL
- IC50 (Titer in TZM.bl cells) [37]: 0.032 µg/mL
- IC80 (Titer in TZM.bl cells) [37]: 0.127 µg/mL
